Positions count from the first letter of the chain named.
Legend:
Settings in all cases: label: Alexa680 at 5' and 3'
[1] = biological target: T1, hPUF_MT(R4→R6_N12C, R6_N12C) (UniProt Q14671 SEQ:1-349); assay: EMSA
T1 chain: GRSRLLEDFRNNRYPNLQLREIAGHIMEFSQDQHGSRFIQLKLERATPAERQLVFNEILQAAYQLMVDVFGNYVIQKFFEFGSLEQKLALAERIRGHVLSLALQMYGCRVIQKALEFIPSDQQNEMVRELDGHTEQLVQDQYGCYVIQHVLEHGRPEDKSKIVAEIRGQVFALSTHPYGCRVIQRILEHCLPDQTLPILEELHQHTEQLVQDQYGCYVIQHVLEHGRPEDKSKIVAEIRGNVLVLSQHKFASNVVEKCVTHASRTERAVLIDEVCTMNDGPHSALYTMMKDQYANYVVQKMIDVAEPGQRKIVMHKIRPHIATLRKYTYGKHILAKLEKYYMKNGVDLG

[2] = biological target: T2, hPUF_MT(R3→R5_C12N, R4→R5_C12N, R5_C12N); assay: EMSA; strongest of the four
T2 chain: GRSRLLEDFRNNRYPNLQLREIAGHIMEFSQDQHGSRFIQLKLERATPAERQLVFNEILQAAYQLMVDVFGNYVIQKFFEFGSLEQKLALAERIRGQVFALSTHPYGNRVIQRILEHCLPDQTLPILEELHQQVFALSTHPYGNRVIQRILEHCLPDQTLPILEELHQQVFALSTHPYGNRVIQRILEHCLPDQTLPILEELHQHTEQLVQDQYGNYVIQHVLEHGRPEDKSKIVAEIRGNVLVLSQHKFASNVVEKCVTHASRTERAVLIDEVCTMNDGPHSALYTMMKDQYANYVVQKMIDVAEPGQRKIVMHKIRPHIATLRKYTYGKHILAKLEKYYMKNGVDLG

[3] = biological target: T3, hPUF_MT(R3→R5, R4→R5, R5; all C12S,Q16E); assay: EMSA; binds only to its target
T3 chain: T2 chain with N108S, Q112E, N144S, Q148E, N180S, Q184E

[4] = biological target: T4, hPUF_MT(R3→R5, R4→R5, R5; all C12S,Q16R); assay: EMSA; binds only to its target
T4 chain: T2 chain with N108S, Q112R, N144S, Q148R, N180S, Q184R

[5] = biological target: T5, hPUF_MT(R5:A_13R)3(R6:G_13Y)3; assay: EMSA; best of three
T5 chain: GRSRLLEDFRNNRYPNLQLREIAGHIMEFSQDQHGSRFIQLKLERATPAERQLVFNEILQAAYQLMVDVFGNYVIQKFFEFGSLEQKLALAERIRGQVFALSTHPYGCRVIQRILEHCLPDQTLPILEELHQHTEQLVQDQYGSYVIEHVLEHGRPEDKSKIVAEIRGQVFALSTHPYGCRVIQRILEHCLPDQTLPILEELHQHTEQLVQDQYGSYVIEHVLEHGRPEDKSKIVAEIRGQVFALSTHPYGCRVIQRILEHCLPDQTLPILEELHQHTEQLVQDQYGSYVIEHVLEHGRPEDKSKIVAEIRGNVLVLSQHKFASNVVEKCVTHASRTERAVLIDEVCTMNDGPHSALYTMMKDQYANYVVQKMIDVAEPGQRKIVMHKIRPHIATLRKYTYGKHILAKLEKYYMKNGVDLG

[6] = biological target: T6, hPUF_MT(R5:G_13R)3(R6:U_13Y)3; assay: EMSA
T6 chain: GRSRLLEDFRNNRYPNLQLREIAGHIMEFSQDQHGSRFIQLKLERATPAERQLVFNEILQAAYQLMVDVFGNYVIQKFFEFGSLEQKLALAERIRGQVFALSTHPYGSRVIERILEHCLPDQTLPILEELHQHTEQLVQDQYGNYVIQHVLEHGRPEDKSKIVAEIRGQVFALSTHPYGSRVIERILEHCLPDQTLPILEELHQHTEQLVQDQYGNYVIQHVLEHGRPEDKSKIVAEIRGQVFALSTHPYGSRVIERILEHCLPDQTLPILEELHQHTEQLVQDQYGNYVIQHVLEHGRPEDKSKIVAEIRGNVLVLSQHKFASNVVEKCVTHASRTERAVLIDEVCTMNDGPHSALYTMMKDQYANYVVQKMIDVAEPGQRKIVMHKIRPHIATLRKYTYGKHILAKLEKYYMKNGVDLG

[7] = biological target: T2, hPUF_MT(R3→R5_C12N, R4→R5_C12N, R5_C12N); assay: EMSA; binds only to its target
[8] = biological target: T4, hPUF_MT(R3→R5, R4→R5, R5; all C12S,Q16R); assay: EMSA; stronger than A-recognising P8
[9] = biological target: T7, hPUF_MT(R5:A_13R)3(R6:C_13Y)3; assay: EMSA; best of three
T7 chain: T5 chain with E148R, E220R, E292R

[10] = biological target: T8, hPUF_MT(R3→R5, R4→R5_R13H, R5_R13H); assay: EMSA; H=Y>R>F=W>K; Example 5-2 states a different order
T8 chain: T2 chain with N108C, N144C, R145H, N180C, R181H

hPUF_MT(R3→R5, R4→R5) = biological target: T9, hPUF_MT(R3→R5, R4→R5); assay: EMSA; A-A stacking: H=Y>R>F=W>K
T9 chain: T2 chain with N108C, N144C, N180C

[11] = biological target: T10, hPUF_MT(R3→R5, R4→R5_R13Y, R5_R13Y); assay: EMSA; H=Y>R>F=W>K
T10 chain: T2 chain with N108C, N144C, R145Y, N180C, R181Y

[12] = biological target: T11, hPUF_MT(R4→R6_N12S,Q16R, R6_N12S,Q16R) (UniProt Q14671 SEQ:1-349); assay: EMSA; comparable to or relatively weaker than WT U recognition
T11 chain: T1 chain with C144S, Q148R, C216S, Q220R

[13] = biological target: T12, hPUF_MT(R4→R6_N12S,Q16E, R6_N12S,Q16E) (UniProt Q14671 SEQ:1-349); assay: as above
T12 chain: T1 chain with C144S, Q148E, C216S, Q220E

[14] = biological target: T3, hPUF_MT(R3→R5, R4→R5, R5; all C12S,Q16E); assay: EMSA; stronger than A-recognising P8

B1: OTS-1819 (ssRNA)
RNA: CCAGAAUUGAAAAUAUUCG
Q: How did the binding signal [1] turn out when B1 was run?
A: ~0.01 fold of U-recognising type

B2: OTS-1841 (ssRNA)
RNA: CCAGAAUUGUUUUUAUUCG
Q: What does the source list for B2?
A: binding result [2]: binds; binding result [3]: no binding; binding result [4]: no binding

B3: OTS-2008 (ssRNA)
RNA: CCAGAAUUGGAGAGAUAUUCG
Q: Does B3 bind [5]?
A: binds

B4: OTS-2004 (Example 5-6) (ssRNA)
RNA: CCAGAAUUGUGUGUGUAUUCG
Q: Does B4 bind [6]?
A: binds

B5: OTS-1843 (ssRNA)
RNA: CCAGAAUUGUCCCUAUUCG
Q: Does B5 bind [3]?
A: no binding

Q: Does B5 bind [7]?
A: no binding

Q: Does B5 bind [8]?
A: binds

B6: OTS-2004 (Example 5-4) (ssRNA)
RNA: CCAGAAUUGCACACAUAUUCG
Q: Does B6 bind [9]?
A: binds

B7: OTS-1759 (ssRNA)
RNA: CCAGAAUUGUAAAUAUUCG
Q: What does the source list for B7?
A: binding result [10]: binds; binding result (hPUF_MT(R3→R5, R4→R5)): binds; binding result [11]: binds

B8: OTS-1979 (ssRNA)
RNA: CCAGAAUUGCACAUAUUCG
Q: Does B8 bind [12]?
A: binds

B9: OTS-1978 (ssRNA)
RNA: CCAGAAUUGGAGAUAUUCG
Q: Does B9 bind [13]?
A: binds

B10: OTS-1842 (ssRNA)
RNA: CCAGAAUUGUGGGUAUUCG
Q: Does B10 bind [7]?
A: no binding

Q: Does B10 bind [4]?
A: no binding

Q: Does B10 bind [14]?
A: binds

— US11472855, “RNA-binding protein” (Panitch Schwarze Belisario & Nadel LLP)
